From patent US20260275317A1, “CHIMERIC ENDOLYSINS WITH ACTIVITY AGAINST STREPTOCOCCI AND STAPHYLOCOCCI” (UNIVERSITEIT GENT, priority 2023, published 2026)

What was measured:
MAC-T cells = assay type: cell-based, bovine; settings: 2.5 μM
Method: MAC-T cells were seeded in a 6-well plate at 300.000 cells/well and grown to 100% confluency. Next, cell culture medium was replaced by prewarmed NC5 in DMEM (buffer exchange performed at 4-8° C. by means of a Pierce™ Protein Concentrator PES 10 kDa MWCO) and allowed to incubate during 1 h at 37° C. and 5.0% CO2. DMEM alone served as the negative control. Following incubation, the supernatant was aspirated and cells were washed 5× with prewarmed dPBS. Cells were then harvested, pelleted and washed as previously described, followed by lysis in ice-cold 0.1% triton X-100 (Sigma-Aldrich, USA) in dPBS. The cell lysates were denaturized and subjected to SDS-PAGE before blotting to a nitrocellulose membrane (Novolab, Belgium). The membrane was thereafter incubated during 1 h in dPBSM5 as blocking buffer. Subsequently, the primary antibody being mouse monoclonal IgG anti-HIS5 (Sigma-Aldrich, USA) was added to the blocking buffer at 1:2000 and allowed to incubate under the same conditions for another hour. The nitrocellulose membrane was then washed 3× with dPBST and incubated during 30 min with the secondary antibody being HRP conjugated goat monoclonal anti-mouse IgG (ImTec Diagnostics, Belgium) diluted 1:1000 in dPBST. […]

[1] = tested on: stationary phase S. uberis; experiment: Turbidity reduction assay (TRA), S. uberis; assay type: cell-based, Streptococcus uberis
Method: Concerning the time killing assay, an overnight bacterial culture was diluted 1:10 for S. uberis, S. agalactiae-& dysgalactiae or 1:100 for S. aureus in PBS or UHT-pasteurized whole cow's milk. A volume of 10 μL thereof was combined with an equal amount of chimeric endolysin in PBS (or only PBS as negative control) in triplicate and incubated in a covered 96-well microtiter plate at 37° C. for 2 h. The dose was low (i.e. 0.25 μM), but this was chosen to differentiate between less and better performing variants, consequently allowing a ranking. Finally, these fractions were serially diluted 1:10 in PBS. 5 μL of each fraction was spotted on TSA or BHI-agar and incubated overnight at 37° C. The following day, colony forming units (CFU) were counted and converted to CFU/mL to calculate logarithmic reductions in comparison with the negative control. The relative scores were calculated by dividing the observed logarithmic reduction for each endolysin by the maximal reduction observed for that specific condition and strain. Next, this value was divided by the number of conditions and strains tested (i.e., 8=4 bacterial strains×2 conditions (PBS/UHT-milk)). As such, the best performing candidate in each individual assay received a score of 0.125 (=(1/1)/8). […] Turbidity reduction assays were performed by combining 100 μL of overnight grown bacterial cells with an equal volume of purified enzyme at the desired concentration. Bacterial cells were washed with PBS and resuspended in a 1:1 ratio with enzyme to an OD600 of approximately 1.0. Next, the OD600 was measured using a Tecan infinite 200 PRO plate reader (Tecan, Switzerland) every 15 seconds at 37° C., shaking the 96-well plate between each measurement.
Time killing and turbidity reduction assays were performed as previously described in 1.3.1.

[2] = tested on: S. uberis GCC ST-143 biofilm; experiment: Biofilm eradication assay; assay type: cell-based, Streptococcus uberis; settings: 1.5 μM, 2 h30, 37° C.
Method: Biofilms were grown by transferring mid-log phase bacteria (OD600=0.6) grown in brain heart infusion (BHI) (Oxoid, Belgium) containing 0.25% α-D-glucose (ThermoFisher Scientific, USA) to a nunclon delta-treated, U-shaped-bottom 96-well microplate (ThermoFisher Scientific, USA). This whole was incubated for 21-24 h in a box containing a wet tissue. Subsequently, media and planktonic cells were removed and 1.5 µM of chimeric endolysin was allowed to eradicate the biofilms during 2 h30 at 37° C. on a shaker at 120 rpm. […] Biomass was fixated with 100% ethanol (ThermoFisher Scientific, USA) and stained with crystal violet (0.1% crystal violet (Sigma-Aldrich, USA), 5% methanol and isopropanol (ThermoFisher Scientific, USA) in PBS. Triple washing with PBS by inverting the plate was executed before solubilizing the stained biomass in 30% acetic acid (Chem-Lab, Belgium). OD590 nm was measured using a CLARIOstar Plus plate reader (BMG Labtech, The Netherlands). Logarithmic reductions were determined by scraping biomass from the wells with a sterile tooth picker followed by resuspension in PBS, which was subsequently serially diluted and spotted on BHI-agar. CFU/mL were counted after overnight incubation at 37° C.

B1: NC5: chimeric endolysin SEQ ID NO: 17; HIV-1 TAT + PlySs2 CHAP + Ply1081 CW_7 + PlySs9 amidase_3 (protein)
chain: MYGRKKRRQRRRGATTVNEALNNVRAQVGSGVSVGNGECYALASWYERMISPDATVGLGAGVGWVSGAIGDTISAKNIGSSYNWQANGWTVSTSGPFKAGQIVTLGATPGNPYGHVVIVEAVDGDRLTILEQNYGGKRYPVRNYYSAASYRQQVVHYITPPGTVAQSAPNLAGAGIDQLVQETLAGKYGNGEQRKAALGSQYQAVMAVINGKATAPKKTVDQLAQEVIQGKHGNGEDRKKSLGPDYDAVQKRVTEILKGSPSGNIPKTPSDAPKSEVVNSSTEPKTEETGANGKATDTKITKGSGKHLVICGHGQGRTGYDPGAVNAKLGITEAGKVRELSKLMSKYSGQQIDFITEQNVYDYRSITSIGKGYDSITELHFNAFNGSAKGTEVLIQSSLEADKEDMAILSLLSRYFQNRGIKKVDWLYNANQAASRGYTYRLVEIAFIDNEQDMAIFENKKEDIAKGLVSAITGVEVKTIVPSPPSSTVGSSGTPSKSIYLVGDSLRVLPHATHYQTGQKIANWVKGRTYKILQVKNVHQSNSKRAYLLDGIKSWVLEQDVEGTTKGHSKYHHHHHH
stability after incubation with MAC-T cells (SDS-PAGE of supernatant) (MAC-T cells): neither disintegrated nor precipitated after incubation with MAC-T cells | lysis in comparative TRA versus NC3 and NC8 ([1]; 0.5 μM, S. uberis 0140J): lysed the bacterial cells faster and resulted in a higher reduction of the OD600 | lysis speed (ΔOD600/min)/μM ([1]; Clinical S. uberis 1 (Unknown ST and GCC), 0.3 μM): 0.06 (ΔOD600/min)/μM | ΔOD600 ([1]; Clinical S. uberis 1 (Unknown ST and GCC), 1 h, 0.3 μM): 0.42 | lysis speed (ΔOD600/min)/μM ([1]; Clinical S. uberis 2 (Unknown ST, GCC 5), 0.3 μM): 0.11 (ΔOD600/min)/μM | ΔOD600 ([1]; Clinical S. uberis 2 (Unknown ST, GCC 5), 1 h, 0.3 μM): 0.38 | lysis speed (ΔOD600/min)/μM ([1]; Clinical S. uberis 3 (Unknown ST, GCC 5), 0.3 μM): 0.44 (ΔOD600/min)/μM | ΔOD600 ([1]; Clinical S. uberis 3 (Unknown ST, GCC 5), 1 h, 0.3 μM): 0.62 | lysis speed (ΔOD600/min)/μM ([1]; Clinical S. uberis 4 (ST 815, GCC 143), 0.3 μM): 0.05 (ΔOD600/min)/μM | ΔOD600 ([1]; Clinical S. uberis 4 (ST 815, GCC 143), 1 h, 0.3 μM): 0.63 | lysis speed (ΔOD600/min)/μM ([1]; Clinical S. uberis 5 (ST 944, GCC 5), 0.3 μM): 0.21 (ΔOD600/min)/μM | ΔOD600 ([1]; Clinical S. uberis 5 (ST 944, GCC 5), 1 h, 0.3 μM): 0.59 | ΔOD600 ([1]; S. uberis 0140J, 0.3 μM): 0.57±0.00 | lysis speed (ΔOD600/min)/μM, NC5 pairwise versus NC2 ([1]; S. uberis (sub)clinical isolates, 0.3 μM): significantly (p <0.01) faster | lysis speed (ΔOD600/min)/μM ([1]; Subclinical S. uberis 1 (ST 808, GCC 143), 0.3 μM): 0.43 (ΔOD600/min)/μM | ΔOD600 ([1]; Subclinical S. uberis 1 (ST 808, GCC 143), 1 h, 0.3 μM): 0.66 | lysis speed (ΔOD600/min)/μM ([1]; Subclinical S. uberis 2 (Unknown ST and GCC), 0.3 μM): 0.11 (ΔOD600/min)/μM | ΔOD600 ([1]; Subclinical S. uberis 2 (Unknown ST and GCC), 1 h, 0.3 μM): 0.65 | lysis speed (ΔOD600/min)/μM ([1]; Subclinical S. uberis 3 (Unknown ST, GCC 5), 0.3 μM): 0.39 (ΔOD600/min)/μM | ΔOD600 ([1]; Subclinical S. uberis 3 (Unknown ST, GCC 5), 1 h, 0.3 μM): 0.53 | lysis speed (ΔOD600/min)/μM ([1]; Subclinical S. uberis 4 (Unknown ST and GCC), 0.3 μM): 0.28 (ΔOD600/min)/μM | ΔOD600 ([1]; Subclinical S. uberis 4 (Unknown ST and GCC), 1 h, 0.3 μM): 0.42 | reduction of biofilm mass (crystal violet) [2]: significant (p<0.001) reduction of the biofilm mass | Δ Log10 reduction of biofilm CFU [2]: 1.17±0.39 Log10
